Data as given in the nanobody polyreactivity screen of Harvey et al. (2022).

assay: yeast display, Sf9 membrane polyspecificity reagent, FACS + sequencing; frameworks hold sequencing errors
Procedure, shortened: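 Galactose induction of a Saccharomyces cerevisiae BJ5465 synthetic nanobody display library ran 36–48 hours. The cells were then stained for 1 hour at 4 °C with 10% biotinylated, detergent-solubilized Sf9 membrane reagent, pulled down on streptavidin microbeads and FACS-sorted into low and high (top ~1%) gates on expression and reagent-binding fluorescence. Labels for polyreactivity follow the gate of origin.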

Sequence	polyreactivity (PSR sort gate)
QVQLVESGGGLVQAGGSLRLSCSASGSIFVRNFMGGYRQSPGKERELVAGISWNGGSTFYADSVKGRFTISRDNAKNTVYLQMNSLKPEDTAVYYCAARGRHSVYYSFPYYYWGQGTQVTVSS	low polyreactivity
QVQLVESGGGLVQAGGSLRLSCSASGSIFYYKAMGWYRQAPGKERELVAAISYRGTSTYYADSVKGRFTISRDNAKNTVSLQMNSLKPEDTAVYYCAAPALYTSRRYYYWGQGNQVTVSS	high polyreactivity
QVQLVESGGGLVQAGGSLRLSCSASGSIYSYYTMGSYIQAPGKERELVAAITGSGGRTYYADSVKGRFTISRDNAKNTVYLQMNSLKQEDTAVYYCNADRHYVPYYSRPRYIPYDYWGQGTQVTVSS	high polyreactivity
QVQLVESGGGLVQAGGSLRLSCSASGSTFFPYAMGWYRQAPGKERELVAAITSGGNTNYADSVKGRFTISRDNAKNTVYLQMNSLKPEDTAVYYCAADYLWHYRKYDYWGQGTQVTVSS	low polyreactivity
QVQLVESGGGLVQAGGSLRLSCSASGSTFPPNAMGWYRQAPGKERELVAVISYSDGSTYYADSVKGRFTISRDNAKNTVYLQMNSLKPEDTAVYYCAAYSGYGGVSMYYWGQGTQVTVSS	low polyreactivity
QVQLVESGGGLVQAGGSLRLSCSASGSTFRGYAMGWYRQAPGKDRELVAAISWSGGSTYYADSVKGRFTISRDHAKNTVYLQMNSLKPVDTAVYYCNAVGYLDFEWGQGTQVTVSS	low polyreactivity
QVQLVESGGGLVQAGGSLRLSCSASGSTFSENAMGWYRQAPGKERELVAAISWGGGSTYYADSVKGRFTISRDKAKNTVYLQMNSLKPEDTSVYYCNADVFDDYCDFESDDWGQGTQVTVSS	low polyreactivity
QVQLVESGGGLVQAGGSLRLSCSASGSTFYVYAMGWYRQAPGKERELVAAITDSGGSTYYADSVKGRFTISRDNAKNTVYLQMNILKPEDTAVYYCAREYTYRYHYYYWGQGTQVTVSS	low polyreactivity
QVQLVESGGGLVQAGGSLRLSCSASGYIFSKYGMGWYRQAPGKEREFVAAISIRGGNTYYADSVKGRFTISRDNAKNTVYLQMTSLKPEDTAVYYCNALSYGRYLNYRGGMDYWGQGTQVTVSS	high polyreactivity
QVQLVESGGGLVQAGGSLRLSCSDSGSTFPYHAMGWYRPAPGKERELVAAIDSSDGITYYADSVKGRFTISRDNAKNTVYLQMNRLKPEDTAVYYCAAEDYEAGYDFWGQGTQVTVSS	high polyreactivity
QVQLVESGGGLVQAGGSLRLSCTASGGIFRYYAMGWYRPAPGKERELVAGISRSGGSTHYADSVKGRFTISRDNAKNTVYLQMNSLKREDTAVYYCAADTYFTKYDYWGQGTQVTVSS	high polyreactivity
QVQLVESGGGLVQAGGSLRLSCVASGLTFYYYAMGWYRQAPGKERELVAAISSGGSTYYADSVKGRFTISRDNAKNTVYLQMNSLKPEDTAVYYCNTYRYRVWGLMYWGQGTQVTLSS	high polyreactivity
QVQLVESGGGLVQAGGSLRLSCVASGRIFWANAIGWYRQAPGKERELVAAITYSGGTTYYADSVKGRFTISRDNAKNTVYLQMNSLKPEATAVYYCAKVGRGNNYWGQGTQVTVSS	high polyreactivity
QVQLVESGGGLVQAGGSLRLSCVASGRTFSRYAMGWYRPAPGKERELVAAISRRGGSTFYADSVKGRFTISRDNAKNTVYLQMNSLKPEDTAVYYCAAGYITWGSGNWVVTPYDYWGQGTQVTVSS	high polyreactivity
QVQLVESGGGLVQAGGSLRLSCYASGFIFHSYAMGWYRQAPGKERELVASISRGGGSTYYADSVKGRFTISRDNAKNTVYLQKNSLKPEDTPVYYCNAVWRSNSRFDYWGQCTQVTVSS	high polyreactivity
QVQLVESGGGLVQAGGSLRLSFAASARTFYIYPMGWYRQAPGKERELVAAITYGGGRTFYADSVKGRFTISRDNANNTVYLQMNSLKPEDTAVYYCAATVRGKRSTYDYWGQGTQVTVSS	high polyreactivity
QVQLVESGGGLVQAGGSLRLSFAASGFIFYRYVMGWYRQAPGKERELVAAITWSGGSTYYADSVKGRFTISRDNAKNTVYLQMNSLKPEDTAVYYCNAESNLYFRYDYWGQGTQVTVSS	low polyreactivity
QVQLVESGGGLVQAGGSLRLSFAASGFNFEWYTMGWYRQAPGKEMELVADISGDGSTYYAVSVKGRFTISRDNAKNTVYLQMNSLKPEDTAVYYCAASFWGIAMGYWGQGTQVTVSS	high polyreactivity
QVQLVESGGGLVQAGGSLRLSFAASGFTFYRYAMGWYRQAPGKERELVAAISGDGGSTYYAASVKGRFTISRDNAKNTVYLQMNSLKPEDTAVYYCNKYFWQYLYGYWGQGTQVTVSS	high polyreactivity
QVQLVESGGGLVQAGGSLRLSFAASGFTLVGYTMGWYRQAPGKERELVAAINWSGGRTYYADSVKGRFTISRDNAKNTVYLQMNSLKPVDTAVYYCAADSLRYKKYYYWGQGTQVTVSS	high polyreactivity
QVQLVESGGGLVQAGGSLRLSFAASGLIGRYAMGWYRQAPGKERELVAVITSGDSTYYADSVKGRFTISRDNAKNTVYLQMNSLKQEDTAVYYCAADSYRRWGNLFTGNEYDSWGQGTQVTVSS	low polyreactivity

Sequence	polyreactivity (PSR sort gate)
QVQLVESGGGLVQAGGSLRLSFAASGLIVTGYAMGWYRQRPGKEREVVAAITSGGGTNYADSVKGRFTISRDNAKNTVDLQMNSLKPEDTAVYYCAVDFGHYYLYSITSYLWYWDGYDYWGQGTQVTVSS	low polyreactivity
QVQLVESGGGLVQAGGSLRLSFAASGNIFSFNDMGWYRQAPGQERELVAAITSSDSTNYADSVKGRFTISRDNAKNTVYLQMNSLKPEDTAVYYCATEILTAARETVVYQFYLGYYYWGQGTQVTVSS	low polyreactivity
QVQLVESGGGLVQAGGSLRLSFAASGRIFDYNVMGWYRQAPGKERELVADITSSGGATYYADSVKGRFTNSRDNAKNTVYLQMNSLKPEDTAVYYCYISYFTFYDDFYYWGQGTQVTVSS	low polyreactivity
QVQLVESGGGLVQAGGSLRLSFAASGRTFLVYAMGWYRQAPGKERELVAGITSGGGTYYADSVKGRFTISRDNAKNTVYLQMNSLKPEDTAVYYCAKYRWYGVYWGQGTQVTVSS	low polyreactivity
QVQLVESGGGLVQAGGSLRLSFAASGRTFPDNAMGWYRQAPGTQRELVATISWSGGSTYYADSVKGRFTISRDNAKNTVYLQMNSLKPEDTAVYYCARDSLQVFYPYASDDYWGQGTQVTVSS	low polyreactivity
QVQLVESGGGLVQAGGSLRLSFAASGRTFSGYAMGWYRQAPGKERELVASISGSGSSTYYADSVKGRFTISRDNAKNTVYLQMNSLKPEHTAVYYCNATRAGENPDGGDEYWGQGTQVTVSS	high polyreactivity
QVQLVESGGGLVQAGGSLRLSFAASGRTFTYNAMGVYRQAPGKERELVAAMTYRGGSTYYADSVKGRFTISRDNAKNTVYLQMNSLKPEDTAVYYCAARVSYYRYNTPHYYYWGQGTQVTVSS	high polyreactivity
QVQLVESGGGLVQAGGSLRLSFAASGRTFYGYAMGWYRQAPGKERELVASIRQSAGRTYYADSVKGRFTISRDISKNTVYLVMNSLKPEDSAVYYCAASIFLRSFYQQGNYWGQGTHVTVSS	high polyreactivity
QVQLVESGGGLVQAGGSLRLSFAASGRTFYINDMGWYRQAPGKERELVAAITWRGGSTYYADSVKGRFTISRDNAMNTVYLQMNSLKPEDTAVYYCAAYISLYWWYDYWGQGTQVTVSS	low polyreactivity
QVQLVESGGGLVQAGGSLRLSFAASGSIFKGNVMGWYRQAPGKERELVAGISRRGTSTYYADSVKGRFTISRDNAKNSVYLQMNSLKPEDSAVYYCAKRYYTYGYDYWGQGTQVTVSS	high polyreactivity
QVQLVESGGGLVQAGGSLRLSFAASGSIFRYYVMGWYRQAPGKERELVAAISSGGRTYYADSVKGRFTISRDNAKNTVYLQMNSLKPEDTAVYYCNAQGLFYWEMDYWGQGTQVTVSS	high polyreactivity
QVQLVESGGGLVQAGGSLRLSFAASGSNFAVKAMGLNTPAPGKERELVATITRRDGSTYYADSVKGRFTISRDNAKYTVYLQLNSLKPEDTAVYYCNARLKRTYDYWGQGTQVTVSS	high polyreactivity
QVQLVESGGGLVQAGGSLRLSFAASGSNFYIYAMGWYRQAPGKERELVAAITSGGNTYYVDSVKGRFTISRDNAKNTVYFQMNSLKPEDTAVYYCAAELYDRWSRMDYWGQGTQVTVSS	low polyreactivity
QVQLVESGGGLVQAGGSLRLSFAASGSTFKFNAMGWYRQAPGKERELVATITSRGSRTYYADSVKGRFTISRDNAKNTVYLQMNSLKPEDTAVYYCAKVSKRVGFPTAMNYWGQGTQVTVSS	high polyreactivity
QVQLVESGGGLVQAGGSLRLSFAASGSTIGDNAMGWYRQAPGKERELVAVITSDTSTYYADSVKGRFTISRDNAMNTVYLQMNSLKPEDTAVYYCAADWGGLWFWYEYWGQGTQVTVSS	low polyreactivity
QVQLVESGGGLVQAGGSLRLSFAASGSTLGQNAMGWYRQARGKERELVAASSSGGRTYYADSVKGRFTISRDNAKNTVYLQMNSLNPEDTAVYYCNAVAYSLSGYNSWGQGTQVTVSS	high polyreactivity
QVQLVESGGGLVQAGGSLRLSFAASGYTFSPYAMGWYRQAPGKERELVAVISSSASTYYADSVKGRFTISRDNAKITVYLQMNSLKPEDTAVYYCAAQPAHPRRYDYWGQGTQVTVSS	high polyreactivity
QVQLVESGGGLVQAGGSLRLSFAASGYTFWYYAMGWYRQAPGKERELVARISKRGGSTYYADSVKGRFTISRDNAKNTVYLQMNSLKPEDTEVYYCAADTRQQSHSMDYWGQGTQVTVSS	low polyreactivity
QVQLVESGGGLVQAGGSLRLSFGASGLNFGWYAMGWYRKAPGKERELVAAITYDGDSTYYADSVKGRFTISRDNAKNTVYFQMNSLKPEDTAFYYCAGEYGYGEMDSWGQGTQVTVTS	high polyreactivity
QVQLVESGGGLVQAGGSLRLSGAASGITIKRYAMGWYRQAPGKEREFVATISQSGTSTYYADSVKGRFTISRDNAQNTVYLQMNSLKPEDTAVYYCAADYIGYWYGYYSWGQGTQVTVSS	low polyreactivity
